Results reported in patent US20210403565A1 (BIOATLA, published 2021).

T1: human CTLA4 expressed on the cell surface of CHO cells (human, UniProt P16410 36-223)
T1 construct: whole, on cells; also called CHO-huCTLA4; huCTLA4
T1 sequence (looked up): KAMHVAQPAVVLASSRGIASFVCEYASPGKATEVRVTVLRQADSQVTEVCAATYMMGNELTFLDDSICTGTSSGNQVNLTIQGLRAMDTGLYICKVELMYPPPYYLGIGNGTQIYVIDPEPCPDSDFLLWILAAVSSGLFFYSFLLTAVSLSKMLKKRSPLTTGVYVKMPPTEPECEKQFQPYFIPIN

T2: cynomolgus CTLA4 expressed on the cell surface of CHO cells (cynomolgus, UniProt G7PL88 36-223)
T2 construct: whole, on cells; also called CHO-cynoCTLA4
T2 sequence: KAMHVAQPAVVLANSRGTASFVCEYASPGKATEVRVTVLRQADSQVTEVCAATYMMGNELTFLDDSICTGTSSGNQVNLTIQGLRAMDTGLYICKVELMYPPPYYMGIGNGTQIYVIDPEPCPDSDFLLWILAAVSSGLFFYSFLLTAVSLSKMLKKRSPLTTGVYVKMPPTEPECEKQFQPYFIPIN

T3: recombinant human CTLA4 extracellular domain (human, UniProt P16410 36-161)
T3 construct: extracellular domain; also called huCTLA-4
T3 sequence (looked up): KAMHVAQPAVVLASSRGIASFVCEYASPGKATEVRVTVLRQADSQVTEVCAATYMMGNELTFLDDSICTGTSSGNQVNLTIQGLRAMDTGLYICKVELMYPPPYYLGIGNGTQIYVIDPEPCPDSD

B1: BA-087-08-32 (antibody, V domains shown)
VH: EVQLVQSGAEVKKPGATVKISCKVSGFTFSHYTMHWIRQSPSRGLEWLGFISYDGNYKYYADSVKGRFTISRDNAKNSLYLQMNSLRAEDTAVYYCARTGWLGPFDYWGQGTLVTVSS
VL: EIVMTQSPATLSVSPGERATLSCRASQSVGSSYLAWYQQKPGKAPKLLIYGAFSRATGVPSRFSGSGSGTDFTLTISSLQPEDFATYYCQQDGSSPWTFGQGTKVEIK
notes: Detected with anti-human IgG and a molecular weight of 146 kDa was used in SPR, so it was tested as a whole IgG; also called BA-087-08-032; BA-087-08-32 (# 6978)
B2: BA-087-05-19 (antibody, V domains shown)
VH: EVQLVESGGGLVQPGGSLRLSCAASGFTFSHYTMHWVRQAPGKGLEWVSFISYDGNNKYYADSVKGRFTISRDNSKNTLYLQMNSLRAEDTAVYYCARTGWLGPFDYWGQGTLVTVSS
VL: AIQLTQSPSSLSASVGDRVTITCRASQYVGSSYLAWYLQKPGQSPQLLIYGAFSRATGIPARFSGSGSGTEFTLTISSLQSEDFAVYYCQQDGSSPWTFGQGTKVEIK
notes: Detected with anti-human IgG and a molecular weight of 146 kDa was used in SPR, so it was tested as a whole IgG; also called BA-087-05-019; BA-087-05-19 (# 6972)

What was measured:
[1] = target: T1, human CTLA4 expressed on the cell …; test: FACS, cells expressing human CTLA4, assay pH 7.4, MFI; lot 6978 in His buffer, T0; unit from the axis Log[ng/mL]
Experimental: (§1) The amount of bound antibodies was quantified using anti-human IgG antibody conjugated to fluorophores. The MFI in each reaction was proportional to the amount of antibodies bound. The EC₅₀ value (in ng/mL) for binding to human CTLA4 on cells was determined by MFI of the singlets population against antibody concentration with a Prism variable slope of four-parameter dose-response curve, which was calculated using the nonlinear fit (variable slope, four parameters) model built into GraphPad Prism software (version 7.03).

[2] = target: T1, human CTLA4 expressed on the cell …; test: FACS, cells expressing human CTLA4, assay pH 7.4, MFI; lot 6978 control without test buffer; same column repeated in FIG. 10E and FIG. 10F; unit from the axis Log[ng/mL]
Experimental: as §1

[3] = target: T2, cynomolgus CTLA4 expressed on the cell …; test: FACS saturation, CHO-cynoCTLA-4, pH 7.4, MFI, titration up to about log 6.5; at baseline up to about log 4.5, about 100000 at the end, no plateau; no unit in the table, unit from the axis Log Antibodies [ng/ml]
Experimental: (§2) The amount of antibodies bound on the cells was quantified using anti-human IgG antibody conjugated to fluorophores. EC₅₀ values at pH 6.0 and 7.4 for binding to cells were calculated using the nonlinear fit (variable slope, four parameters) model built into GraphPad Prism software (version 7.03). The expression levels of human CTLA4 or cynomolgus CTLA4 on the surface of the CHO cells were determined using a BD QuantiBRITE™ PE kit.
(§3) Finally, saturations of the antibodies on the CHO cells expressing human or cynomolgus CTLA4 at pH 7.4 were also measured by FACS (FIGS. 8A-8B).

[4] = target: T2, cynomolgus CTLA4 expressed on the cell …; test: FACS saturation, CHO-cynoCTLA-4, pH 7.4, MFI, titration up to about log 6.5; reaches about 330000 against about 700000 for Ipi Analogue; no unit in the table, unit from the axis Log Antibodies [ng/ml]
Experimental: as §2, §3

[5] = target: T2, cynomolgus CTLA4 expressed on the cell …; test: FACS, CHO cells expressing cynomolgus CTLA4 (CHO-cynoCTLA-4), pH 7.4, MFI; curve still rising at log 5 (about 600000 against about 1900000 for Ipilimumab), no plateau; no unit in the table, unit from the axis Log Antibodies [ng/ml]
Experimental: as §2
At least two independent duplicate FACS experiments were performed for each antibody using each of the cell lines. The binding activities at different concentrations of the antibodies are plotted in these figures.

[6] = target: T3, recombinant human CTLA4 extracellular …; test: ELISA, wells coated with human CTLA4, assay pH 6.0; lot 6972 in Tris buffer, T2W; unit from the axis Log[ng/mL]
Experimental: (§4) Both ELISA and FACS analysis were used to measure the binding activity. […] The amount of bound antibodies was quantified using anti-human IgG antibody conjugated to HRP. The absorbance at 450 nm in each measurement was proportional to the amount of antibodies bound. […] EC50 value (in ng/mL) for binding to human CTLA4 was determined by absorbance at 450 nm against antibody concentration with Prism variable slope of four-parameter dose-response curve, which was calculated using the nonlinear fit (variable slope, four parameters) model built into GraphPad Prism software (version 7.03). The buffers tested included His buffer (His), Tris buffer (Tris), Glutamine buffer (Glu) and no buffer.

[7] = target: T3, recombinant human CTLA4 extracellular …; test: ELISA, immobilised huCTLA-4, table head pH 7.0 (text: pH 7.4), mean +/- SD
[8] = target: T1, human CTLA4 expressed on the cell …; test: FACS, cells expressing human CTLA4, assay pH 6.0, MFI; lot 6972 in Tris buffer, T0; unit from the axis Log[ng/mL]
Experimental: as §1

[9] = target: T3, recombinant human CTLA4 extracellular …; test: ELISA, wells coated with human CTLA4, assay pH 7.4; lot 6972 in Tris buffer, T0; unit from the axis Log[ng/mL]
Experimental: as §4

[10] = target: T3, recombinant human CTLA4 extracellular …; test: ELISA, immobilised huCTLA-4, table head pH 7.0 (text: pH 7.4), Jun. 29, 2017
[11] = target: T1, human CTLA4 expressed on the cell …; test: FACS, cells expressing human CTLA4, assay pH 7.4, MFI; lot 6972 control without test buffer; same column repeated in FIG. 10B and FIG. 10C; unit from the axis Log[ng/mL]
Experimental: as §1

Binder	EC50 [1] [µg/mL]	EC50 [2] [µg/mL]	EC50 [3] [µg/mL]	EC50 [4] [µg/mL]	EC50 [5] [µg/mL]	EC50 [6] [µg/mL]	EC50 [7] [µg/mL]	EC50 [8] [µg/mL]	EC50 [9] [µg/mL]	EC50 [10] [µg/mL]	EC50 [11] [µg/mL]
B1	0.849	0.868	1650								
B2				13	8.28	0.0101	0.0598	0.291	0.0424	0.0934	0.428
